Data on 41 sequences can be found in the nanobody polyreactivity screen of Harvey et al. (2022).

This series is described as follows: yeast display, Sf9 membrane polyspecificity reagent, FACS + sequencing; frameworks hold sequencing errors. In outline:
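Synthetic nanobody libraries on Saccharomyces cerevisiae BJ5465 were galactose-induced for 36–48 hours, stained 1 hour at 4 °C with 10% biotinylated, detergent-solubilized Sf9 membrane reagent and enriched on streptavidin microbeads. FACS then separated cells into low and high (top ~1%) gates by anti-HA (expression) and streptavidin (reagent binding) fluorescence. Genes were colony-PCR amplified, MiSeq 2 × 250 sequenced and CDR-length filtered. A clone's polyreactivity label is that of its gate of origin.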
Regarding “QVQLVESGVGLVQAGGSLRLSCAASGFIFRFYTMGWYRQAPGKERELVAAISGSGGRTYYADSVKGRFTISRDYANNTVYVQMNRLKPEDTEVYYCNKQFLYPSYDYWGQGTQVTVSS”, the “polyreactivity (PSR sort gate)” value is reported as “high polyreactivity”. With “QVQLVESGVGLVQAGGSLRLSCAASGFTFAFYAMGWYRQAPGKERELVAAISRRGGSTTYADSVKGRFTISRDNAKYTVYLQMNSLKPEDTAVYYCNAVSTRNPGPDYYYWGQGTQVTVSS”, the “polyreactivity (PSR sort gate)” value was “high polyreactivity”. On to “QVQLVESGVGLVQAGGSLRLSCAASGFTFKSYTMGWYRQAPGKERELVANISRRGGSTYYADSVKGRFTISRDTAKNTVYLQMNRLKPEDTAVYYCAADAYGFLYTTYRYFYWGQGTQVTVST”, for which the “polyreactivity (PSR sort gate)” value is “high polyreactivity”. For “QVQLVESGVGLVQAGGSLRLSCAASGGIFAVYAMGWYIQAPGKERELVAAITWRGGSTRYADSVKGRFTISRDNAKNTVYLQMNSLKPEDTAVYYCAVRSTGYPSRYYYWGQGTQVTVSS”, the “polyreactivity (PSR sort gate)” value is “high polyreactivity”. On to “QVQLVESGVGLVQAGGSLRLSCAASGITLYNYAMGWYRHAPGKERELVAAISLSGGRTYYADSVKGRFTISRDNAKNTVYLQMNSLKPEDTAVYYCAADWLNSDPYNYWGQGTQVTVSS”, for which the “polyreactivity (PSR sort gate)” value is on record as “low polyreactivity”.

Regarding “QVQLVESGVGLVQAGGSLRLSCAASGLIFGYYAMGRNRQAPGKERELVAAITRGGGRTYYADSVKGRFTISRDNAKNTVYLQMNSLKPEDTAVYYCNAVRRVSSAGEFDYWGQGTQVTVSS”, the “polyreactivity (PSR sort gate)” value is “high polyreactivity”.

As to “QVQLVESGVGLVQAGGSLRLSCAASGLTFLYYAMAWLRQAPGKERELVAVISSGGRTYYADSVKGRFTISRDNAKNTVYLQMHSLKPEDTAVYYCAAYDPYYQSTFDYWGQGTQVTVSS”, the “polyreactivity (PSR sort gate)” value is “high polyreactivity”. “QVQLVESGVGLVQAGGSLRLSCAASGNTISYNAMGWSRQAPGKERELVAAIRWSGGSTNYADSVKGRFTISRDNAKNTVYLQMNSLKPEDTAVYYCNARYASTNYGWISYYWGQGNQVTVSS”: the “polyreactivity (PSR sort gate)” value is “high polyreactivity”. Turning to “QVQLVESGVGLVQAGGSLRLSCAASGRIFAPYAMGWYRQAPGKERELVAAIRWRGGSTSYADSVKGRFTISRDNAKNTVYLQMNSLKPEDTAVYYCNADYGFSFYWYDYWGQGTQVTVSS”, the “polyreactivity (PSR sort gate)” value is listed as “low polyreactivity”. For “QVQLVESGVGLVQAGGSLRLSCAASGRIFRGYAMGWYRQAPGKEREFVAAISWSGGDTYYADSVKGRFTISRDNAKNTVYLQMNSLKAEDTAVYYFATEYRLIPGPFVWPYDYWGQGTQVTVSS” the value was “high polyreactivity”; for “QVQLVESGVGLVQAGGSLRLSCAASGRIFRRYVMGWYRQAPGKEREFVAAITSRGGRTYYADSVKGRFTISRDNAKNTVYLQMNSLKPEDTAVYYCAARYSRSMDYWGQGTQVTVSS”, “high polyreactivity”. To “QVQLVESGVGLVQAGGSLRLSCAASGRIFYPYAMGWYRQAPGKERELDAVINGSGGSTYYADSVKGRFTISRDYAKNTVYLQMNSLKPEDTAVYYCARVWSRRYGGWYRNYYWGQGTQVTVSS” belongs “high polyreactivity”; to “QVQLVESGVGLVQAGGSLRLSCAASGRIFYTYAMGWYRQAPGKERELVAAISSRTGSTYYADSVKGRFTISRDNAKNTVYLQMNSLKPEDTAVYYCAAYLWKSKRKLDYWGQGTQVTVSS”, “high polyreactivity”. Turning to “QVQLVESGVGLVQAGGSLRLSCAASGRIFYYNAMGWYRQAPGKVRELVASISWDASSTYYADSVKGRFTISRDNAKNTVYLQMNSLKPEDTAVYYCNKKHLYRQYDYWGQGTQVTVTS”, the “polyreactivity (PSR sort gate)” value is on record as “low polyreactivity”. For “QVQLVESGVGLVQAGGSLRLSCAASGSIFHIYAMGWYRQAPGKERELVAAMTYADSVKGRFTISRVNAKNTVYLQMNSLKPEDTAVYECNADNWPRIHGSAYDYWGQGTQVTVSS”, the “polyreactivity (PSR sort gate)” value is “low polyreactivity”. As for “QVQLVESGVGLVQAGGSLRLSCAASGSIFQKYTMGWYRQAPGKERQLVAAITRSGGSTYYADSVKGRFTISRDNAKNTVYLQMNSLKAEDSAVYYCNKRYIPWAYDYWGQGTQVTVSS”, the “polyreactivity (PSR sort gate)” value was “high polyreactivity”. Turning to “QVQLVESGVGLVQAGGSLRLSCAASGSIFYHYVMGWYRQAPGKERELVAGISWSGVSTYYADSVKGRFTISRDNAKNTVYLQMNSLKPEDTADYYCAAVYRQSRLHTFGYWGQGTQVTVSS”, the “polyreactivity (PSR sort gate)” value was “high polyreactivity”. To “QVQLVESGVGLVQAGGSLRLSCAASGSTFDFNAMGWYRPAPGKERELVAAITGSGGSTDYADSVKGRFTISRDNAKNTVYLQMNSLKPEDTAVYYCNAGKTIDYRDGVGYDHWGQGTQVTVSS” belongs “low polyreactivity”; to “QVQLVESGVGLVQAGGSLRLSCAASGSTFWSYTMGWYRQAPGKERELVARIRTTGGSTYADSVKGRFTISRDNAKNTVYLQMNSLKPEDTAVYYCAKEGWLRYYPWYGGDYWGQGTQVTVSS”, “high polyreactivity”. As to “QVQLVESGVGLVQAGGSLRLSCAASGYIFRLYAMGGYRQAPGKERELVATITASGGTYYADSVKGRFTISRDNAKNTVYLQMNSLKPEDTAVYYCAAAKLRRLSRVRYGYWGQGTQVTVSS”, the “polyreactivity (PSR sort gate)” value is “high polyreactivity”. “QVQLVESGVGLVQAGGSLRLSCAATGFTFDENAMGWYRQAPGINYSGASTYYAYSVKGRFTISRDNAKNTVYLQMNSLKPEDTAVYYCAAEVVAQMNYWGQGTQVTVSS”: the “polyreactivity (PSR sort gate)” value is “low polyreactivity”. Take “QVQLVESGVGLVQAGGSLRLSCADSGFTFRRYVMGWYRQAPGKERELVAGISASGDSTYYADSVKGRFTISRDYAKNTFYLQMNSLKPEDTAVYYCATVARYRYLESYYWGQGTQVTVSS”: the “polyreactivity (PSR sort gate)” value is recorded as “high polyreactivity”. As to “QVQLVESGVGLVQAGGSLRLSCADSGSIFVINAMGWYRQASGKERELVATIRARAGSTYYADSVKGRFTISRDNAKNTVYLQMNSLKPEDTAFYYCAARLKSYRVEYWGQGTQVTVSS”, the “polyreactivity (PSR sort gate)” value is listed as “high polyreactivity”. Consider “QVQLVESGVGLVQAGGSLRLSCASSGFIFNYNTMGWYRQAPGKETELVAAISSSGGSTYYADSVKGRFTISRDNAKNTVYLQMNSLKPEDTAVYYCGAGANAQRVPNGDYWGQGTQVTVSS”, for which the “polyreactivity (PSR sort gate)” value is “low polyreactivity”. On to “QVQLVESGVGLVQAGGSLRLSCASSGFTFYYYAMGWYRQAPGKERELVAAIDTSDGSTYYADSVKGRFTISRDNAKNTVYLQMNSLKPEDTAVYYCAAEVDWVPFLLDYWGQGTQVTVSS”, for which the “polyreactivity (PSR sort gate)” value is reported as “low polyreactivity”. On to “QVQLVESGVGLVQAGGSLRLSCASSGRTFPTYAMGWYRQAPGKERELVAAIRISGGRTYYADSVKGRFTISRDNAKNTVDLQMNSLKPEDTAVYYCAADTYASYESWGQGTQVSVSS”, for which the “polyreactivity (PSR sort gate)” value is “high polyreactivity”. Turning to “QVQLVESGVGLVQAGGSLRLSCASSGRTFYDYAMGWYRQAPGKERELVATISSRGDGTYYADSVKGRFTISRDYAKITVCLLMNSLKPEDTAVYYCAARYRRVHSGYGYWGQGTHVTVSS”, the “polyreactivity (PSR sort gate)” value is reported as “high polyreactivity”. For the sequence “QVQLVESGVGLVQAGGSLRLSSAASGIIFVSNAMRWYRQAPGKERELVATINWSDDSTYYADSVKGRFTISRDNAKKTVSLQMNSLKADYTAVYYCYCGQGTQVTVSS”, the “polyreactivity (PSR sort gate)” value is “low polyreactivity”. To “QVQLVESGVGLVQAGGSLSLSCAASGRIFPVYAMGWYRQAPGKERELVATISYSGSSTYYADSVKGRFTISRDNAKNNVYLLMNSLKPEDTAVYYCNADAFGPQCVQYYYWGQVTQVTVSS” belongs “low polyreactivity”; to “QVQLVESGVGLVQAGGTLRLSCAASGFTFVRYAMAWYRQAPGKEREFVASISARGCNTFYADSVKGRFTISRDNAKNTVYLQMNSLKPEDTAVYYCAKRGPYGTGYGYWGQGTQVTVSS”, “high polyreactivity”; to “QVQLVESGVGLVQAGGTLRLSCAASGITFLQYAMGWYRQAPGKERELVAGITRSGGAGTYYADSVKGRFTISRDNAKNTVYLQMNSLKPEDTAVYYCAAETDTPSLYQDMYYWGQGTQVTVSS”, “high polyreactivity”. To “QVQLVESGVGLVQAGGTLRLSCAASGRIFTINAMGWYRQAPGKEREFVAAISGSGGTTYYADSVKGRLTISRDNAKNTVYLQMNSLKPEDTAVYYCAVSQSWYWYYASDYWGQGTQVTVSS” belongs “low polyreactivity”; to “QVQLVESGVGLVQARGSLRLSCAASGITFNYYAMGWYRQAPGKESELVATINRSGGTTYYADSVKGRFTISRDKAKNTDYLQMNSLKQEDTAVYDCNARYTSLGRYHSGYEYWGQGTQVTVSS”, “high polyreactivity”. For the sequence “QVQLVESGVGLVQARGSLRLSCAASGSIFRRNAMGWYRQAHGKERELVAAISASGGRTYADSVKGRFTISRDNSKNTVYFQMKSLNPEDKAVYYCAARCYCSSRFDYWGLGTQVTVSS”, the “polyreactivity (PSR sort gate)” value was “high polyreactivity”. On to “QVQLVESGVGLVQGGGSLRLTCPASGFTFDWYAMGWYRPAPGKERELVAAISSSGTSTYYADSVKGRFTISRDTAKNTVYLQMNSLKPEDTAVYYCAARWYYVTPLRRYCYWGQGTQVTVSS”, for which the “polyreactivity (PSR sort gate)” value is “high polyreactivity”. Take “QVQLVESGVGLVQSGGSLRLSCAASGRISAQYTMGWYRQAPGIERELFAAITWSGTNTYYADSVKGRFTISRDNAKNTVYLQFNSLKPEDTAVYYCATAVYLVIFEYDYWGQGTHVTVSS”: the “polyreactivity (PSR sort gate)” value is given as “low polyreactivity”. As for “QVQLVESGVGVVQAGGSLRLSCAASGRTFLRYTMGGYRQAPGKEREFVAAISYDTSSTYYADSVKGRFTISRDNAKNTVYLQMNSLKPEDTAVYYCAATLSRVSLSYGYWGLGTQVTVSS”, the “polyreactivity (PSR sort gate)” value is recorded as “low polyreactivity”. Take “QVQLVESGVRLVQAGGSHRLSCAANGFIFRRYAMGWYIQAPGKERELVAAITRSGGTTYYADSVKGRFTISRDNAKNTVYFQLNSLKPEDTAVYYCDARRPYTYDSGDILEMDHWGQGTQVTVSS”: the “polyreactivity (PSR sort gate)” value is reported as “high polyreactivity”. In the case of “QVQLVESGVVLDQAGGILRLSCAASGFIFARYDMGWYRQAPGKERELVATISYTGGRTYYADSVKGRFTISRDNAKNTVYLQMNSLKPEDTAVYYCAAVVQSSEPVEYDYWGQGTQVTVSS”, the “polyreactivity (PSR sort gate)” value is “high polyreactivity”. As for “QVQLVESRGGIVQAGGSLRLSCAASGSIFEQYAMGLYRQAPGKERELVAAISKRGTSTNYADSVKGRVTISRDNAKNTVYLQMNSLKPEDTAVYYCNADSRHRRNYDYWGQGTHVTVSS”, the “polyreactivity (PSR sort gate)” value is reported as “high polyreactivity”.

With “QVQLVESRGGIVQAGGSLRLTCAASGRTFRSKVMGWYRQAQGKERELVADITYSGGNTYYADSVKGRFTISRDNAKNTDYLQMNSLKPEDNAVYYCATGWSWWTFDYWGQGTQVTVSS”, the “polyreactivity (PSR sort gate)” value is “high polyreactivity”.
